Columns and labels:
HLA-G1/5 β2M-free = molecular target: T1, HLA-G1/5 β2M-free (human, UniProt P17693 25-298, limits assumed); assay: flow cytometry, titration of 15E7, readout % of binding
T1 construct: Printed as one antigen, 'HLA-G1/5 β2M-free'; also called HLA-G1/β2M free; HLA-G5/β2M free

HLA-G6 = HLA-G6 (human, UniProt P17693-6 25-227, limits assumed); assay: as above
[1] = molecular target: T2, HLA-G1 β2M-associated, on lentivirus-transduced cells (Jurkat HLA-G1Lv, K562 HLA-G1Lv) (human, UniProt P17693 25-338; P61769 21-119); assay: flow cytometry on Jurkat HLA-G1Lv and K562 HLA-G1Lv cells, GAM-PE detection
T2 construct: whole, on cells; also called HLA-G1 B2M-associated
Experimental: Flow cytometry analyses were performed using LSR FORTESSA (Beckton Dickinson, Le Pont-de-Claix, France); data were analyzed with FlowJo X software (Tree star, Ashland, USA).

EC50 (read off the curve) (HLA-G1/5 β2M-free): ~0.02 µg/mL
EC50 (read off the curve) (HLA-G6): ~0.1 µg/mL
binding result [1]: no binding
B1: 15E7 monoclonal antibody (antibody, V domains shown)
VH: QVQLQQPGAELVRPGSSVKLSCKASGYTFTDYWMDWVKQRPGQGLEWIGTIYPSDSSTHYNQEFKGKATMTVDKSSSTAYMHLSSLTSEDSAVYYCAREGLAGVFYFDYWGQGTTLTVSS
VL: DVLMTQIPFSLPVSLGDQASISCRSSQSIVHRSGNTYLEWYLQKPGQSPKLLIYKVSNRFSGVPDRFSGSGSGTDFTLKISRVEAEDLGVYYCFQGSHLPPTFGGGTTLEIK
notes: Tested as a monoclonal antibody in flow cytometry and detected with goat anti-mouse IgG; also called 15E7 antibody; anti HLA-G-α3 β2M-free 15E7 antibody

From patent US20220281981A1 (INVECTYS, published 2022)
